Experimental data as given in the Immune Epitope Database (IEDB).

Columns and labels:
HLA-A*23:01 = experiment: IEDB peptide-MHC binding, purified MHC/direct/fluorescence; filed as Kd, often an IC50 or EC50 that approximates it; ≥ and ≤ were set here for values at or beyond the usual limits of such assays
HLA-A*24:03 = experiment: as above
HLA-B*07:02 [1] = experiment: IEDB peptide-MHC binding, purified MHC/competitive/fluorescence; filed as Kd, often an IC50 or EC50 that approximates it; ≥ and ≤ were set here for values at or beyond the usual limits of such assays
HLA-B*35:01 = experiment: as above
HLA-B*51:01 = experiment: as above
HLA-C*05:01 = experiment: IEDB peptide-MHC binding, purified MHC/direct/fluorescence; filed as Kd, often an IC50 or EC50 that approximates it; ≥ and ≤ were set here for values at or beyond the usual limits of such assays
HLA-B*08:01 = experiment: IEDB peptide-MHC binding, purified MHC/competitive/fluorescence; filed as Kd, often an IC50 or EC50 that approximates it; ≥ and ≤ were set here for values at or beyond the usual limits of such assays; details: source organism: Yersinia pestis Nepal516
HLA-A*02:03 = experiment: IEDB peptide-MHC binding, purified MHC/direct/fluorescence; filed as Kd, often an IC50 or EC50 that approximates it; ≥ and ≤ were set here for values at or beyond the usual limits of such assays
HLA-A*02:11 = experiment: as above
HLA-A*02:12 = experiment: as above
HLA-A*02:16 = experiment: as above
HLA-A*02:19 = experiment: as above
HLA-A*03:01 = experiment: as above
HLA-A*29:02 = experiment: as above
HLA-A*68:02 = experiment: as above
HLA-B*27:05 = experiment: as above
HLA-A*02:01 [2] = experiment: IEDB peptide-MHC binding, purified MHC/competitive/fluorescence; filed as Kd, often an IC50 or EC50 that approximates it; ≥ and ≤ were set here for values at or beyond the usual limits of such assays
HLA-A*26:01 = experiment: as above
HLA-A*69:01 = experiment: as above; details: source organism: Orthohantavirus puumalaense
HLA-B*15:01 = experiment: as above
HLA-B*15:17 = experiment: as above
HLA-B*18:01 [3] = experiment: as above
HLA-B*27:03 = experiment: as above
HLA-B*39:01 = experiment: as above
HLA-B*46:01 [4] = experiment: as above
HLA-B*57:01 [5] = experiment: as above
HLA-A*01:01 = experiment: IEDB peptide-MHC binding, purified MHC/direct/fluorescence; filed as Kd, often an IC50 or EC50 that approximates it; ≥ and ≤ were set here for values at or beyond the usual limits of such assays; details: source organism: Ebola virus - Gabon (1994-1997)
HLA-B*46:01 [6] = experiment: as above; details: source organism: West Nile virus
HLA-A*02:01 [7] = experiment: IEDB peptide-MHC binding, purified MHC/competitive/fluorescence; ≥ and ≤ were set here for values at or beyond the usual limits of such assays; details: source organism: West Nile virus NY-99
HLA-A*31:01 = experiment: IEDB peptide-MHC binding, purified MHC/direct/fluorescence; filed as Kd, often an IC50 or EC50 that approximates it; ≥ and ≤ were set here for values at or beyond the usual limits of such assays; details: source organism: West Nile virus
HLA-B*07:02 [8] = experiment: as above; details: source organism: West Nile virus
HLA-B*15:09 = experiment: as above; details: source organism: West Nile virus strain PTRoxo
HLA-B*18:01 [9] = experiment: as above; details: source organism: West Nile virus
HLA-B*40:01 = experiment: as above; details: source organism: West Nile virus
HLA-B*44:02 = experiment: as above; details: source organism: West Nile virus
HLA-B*48:01 = experiment: as above; details: source organism: West Nile virus
HLA-B*57:01 [10] = experiment: as above; details: source organism: West Nile virus
HLA-B*58:01 = experiment: as above; details: source organism: West Nile virus
HLA-C*12:03 = experiment: as above; details: source organism: West Nile virus
HLA-C*15:02 = experiment: as above; details: source organism: West Nile virus
[11] = source organism: Mycobacterium tuberculosis str. Haarlem
[12] = source organism: Yersinia pestis Nepal516
[13] = source organism: Orthohantavirus puumalaense
[14] = source organism: Zaire ebolavirus
[15] = source organism: Influenza A virus (A/Leningrad/1954/1(H1N1))
[16] = source organism: Bacillus anthracis str. A0488
[17] = source organism: West Nile virus

AYLFTPLFK
0.356 µM: Kd (HLA-A*23:01; [11])
0.185 µM: Kd (HLA-A*24:03; [11])

EPLAVIASL
1.7 nM: Kd (HLA-B*35:01; [12])
≥ 20 µM: Kd (HLA-B*07:02 [1]; [12]) | Kd (HLA-B*51:01; [12])

FPIKRISAV
51.2 nM: Kd (HLA-B*08:01)
0.268 µM: Kd (HLA-B*51:01; [12])
0.4 nM: Kd (HLA-B*35:01; [12])
≥ 20000 nM: Kd (HLA-C*05:01; [12])

LRYGNVLDV
951 nM: Kd (HLA-B*27:05; source organism: Isla Vista hantavirus)
≥ 20 µM: Kd (HLA-A*02:03; source organism: Choclo virus) | Kd (HLA-A*02:11; source organism: Choclo virus) | Kd (HLA-A*02:12; source organism: Choclo virus) | Kd (HLA-A*02:16; source organism: Choclo virus) | Kd (HLA-A*02:19; source organism: Choclo virus) | Kd (HLA-A*03:01; source organism: Choclo virus) | Kd (HLA-A*23:01; source organism: Choclo virus) | Kd (HLA-A*24:03; source organism: Choclo virus) | Kd (HLA-A*29:02; source organism: Choclo virus) | Kd (HLA-A*68:02; source organism: Choclo virus) | Kd (HLA-A*02:01 [2]; [13]) | Kd (HLA-A*26:01; [13]) | Kd (HLA-A*69:01) | Kd (HLA-B*15:01; [13]) | Kd (HLA-B*15:17; [13]) | Kd (HLA-B*18:01 [3]; [13]) | Kd (HLA-B*27:03; [13]) | Kd (HLA-B*39:01; [13]) | Kd (HLA-B*46:01 [4]; [13]) | Kd (HLA-B*51:01; [13]) | Kd (HLA-B*57:01 [5]; [13])

LSDLCNFLV
67.1 nM: Kd (HLA-A*01:01)
13 nM: Kd (HLA-C*05:01; [14])
≥ 20 µM: Kd (HLA-A*02:03; [14]) | Kd (HLA-A*02:11; [14]) | Kd (HLA-A*02:12; [14]) | Kd (HLA-A*02:16; [14]) | Kd (HLA-A*02:19; [14]) | Kd (HLA-A*03:01; [14]) | Kd (HLA-A*23:01; [14]) | Kd (HLA-A*24:03; [14]) | Kd (HLA-A*29:02; [14]) | Kd (HLA-A*68:02; [14]) | Kd (HLA-A*02:01 [2]; [14]) | Kd (HLA-A*26:01; [14]) | Kd (HLA-B*15:01; [14]) | Kd (HLA-B*15:17; [14]) | Kd (HLA-B*18:01 [3]; [14]) | Kd (HLA-B*27:03; [14]) | Kd (HLA-B*39:01; [14]) | Kd (HLA-B*46:01 [4]; [14]) | Kd (HLA-B*51:01; [14]) | Kd (HLA-B*57:01 [5]; [14])

LVSLGAISF
290 nM: Kd (HLA-B*35:01; [15])
≥ 20 µM: Kd (HLA-B*07:02 [1]; [15])

MTVFSYKAF
154 nM: Kd (HLA-B*35:01; [16])
0.19 µM: Kd (HLA-B*15:01; [16])

TVSPSAPTY
≥ 20 µM: Kd (HLA-B*46:01 [6])
≤ 0.1 nM: Kd (HLA-B*35:01; [17])

YTMDGEYRL
291 nM: IC50 (HLA-A*02:01 [7])
0.00137 µM: Kd (HLA-A*02:01 [2]; [17])
85 nM: Kd (HLA-C*15:02)
≥ 20000 nM: Kd (HLA-B*27:05; [17])
347 nM: Kd (HLA-C*12:03)
≥ 20 µM: Kd (HLA-A*03:01; [17]) | Kd (HLA-A*31:01) | Kd (HLA-B*07:02 [8]) | Kd (HLA-B*15:09) | Kd (HLA-B*18:01 [9]) | Kd (HLA-B*40:01) | Kd (HLA-B*44:02) | Kd (HLA-B*46:01 [6]) | Kd (HLA-B*48:01) | Kd (HLA-B*57:01 [10]) | Kd (HLA-B*58:01)
